Assay results: publication PMC8343073
pKd: −log10 of the molar value.

Experiments:
[1] = system: HctA (Chlamydia trachomatis L2); test: BLI; settings: BLI (Octet QKe, Ni-NTA sensors, His-protein immobilized): 0.1 M phosphate, 0.15 M NaCl, pH 7.2; nucleic acid 720, 240, 80 nM; temperature not stated
[2] = system: DdbA (Chlamydia trachomatis L2); test: BLI; settings: BLI (Octet QKe, Ni-NTA sensors, His-protein immobilized): 0.1 M phosphate, 0.15 M NaCl, pH 7.2; nucleic acid 720, 240, 80 nM; temperature not stated

Substance: dsDNA oligo 60% GC
- pKd [1]: 8.64
- pKd [2]: 8.14
